Measurements published in the supplement of paper PMC9170038.

Tested on: MS2 coat protein
Assay: apparent KD of MS2 coat protein; designed switch direction (-1 OFF switch, 1 ON switch): 1; higher = weaker reporter binding
How it was run: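 The buffer was Tris-HCl pH 7.5 with KCl, MgCl2, BSA, DTT, tRNA and Tween-20. In it, SNAP-549-labelled MS2 coat protein was titrated in doubling steps from 0.7 or 1.5 nM to 3 µM over chip-bound RNA switches transcribed by stalled E. coli RNA polymerase on Illumina chips. Apparent KD is the per-design median over clusters of curve fits to normalised fluorescence.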

[1] = input ligand: microRNA oligo, concentration not stated
[2] = Eterna round: R95, input ligand: FMN 200 uM
[3] = Eterna round: R95, input ligand: microRNA oligo, concentration not stated
[4] = Eterna round: R95, input ligand: none

Row | Sequence | apparent KD of MS2 coat protein (input ligand: FMN 200 uM) | apparent KD of MS2 coat protein [1] | apparent KD of MS2 coat protein (input ligand: none) | apparent KD of MS2 coat protein [2] | apparent KD of MS2 coat protein [3] | apparent KD of MS2 coat protein [4]
1 | GGAAUAUUUACAGGAUAUGAUUUGUUAAGUCGAUCAGAAGGGUGGAUGUCUUACACGGUUUGUUACAUGAGGAUCACCCAUGUC [SameState NG1 #14] (Eterna round: R96, puzzle: Same State NG 1) | 73.3 nM | 74 nM | 176 nM | – | – | –
2 | GGAAUAUUUACAGGAUAUGUUUUGUUAAGUCGAGCAGAAGGGUAGAUGUCUUACACGGUUUGUUACAUGAGGAUCACCCAUGUU [SameState NG1 #17] (Eterna round: R96, puzzle: Same State NG 1) | – | 86.6 nM | – | – | – | –
3 | GGACGAGACGCAGGAUAUGCGAAGAAGAAGGAAGCAGAAGGGCGUGUGGGACGACAUGAGGAUCACCCAUGUUCUCUGCGAGGA [ssng1 b] (Eterna round: R96, puzzle: Same State NG 1) | 363 nM | 116 nM | 331 nM | – | – | –
4 | GGACGGUUAUCAGGAUAUGCGCUGAGCAUCACGGCUACAUGAGGAUCACCCAUGUCUAGCUUCUCGCAGAAGGGAUAGCCUCCU [Eternabot solution 36] (Eterna round: R96, puzzle: Same State NG 2) | 11.2 nM | 10.1 nM | 15 nM | – | – | –
5 | GGACGUCACUCAAACAAUUAAACAUGAGGAUCACCCAUGUCACAGGAUAUGGAUCCUAAUUGGAUCCAGAAGGGUGAGACGUCC [Fiskers NG3ss - 41] (Eterna round: R96, puzzle: Same State NG 3) | – | 193 nM | – | – | – | –
6 | GGAGAGAAGUGAGGAUAUGCAUGGAAGACACAUGAGGAUCACCCAUGUGGGAGGGAAACCGGGAGGUAGAAGGCACUGGGAAGA [AK SSNG2-V2-25] (Eterna round: R96, puzzle: Same State NG 2) | 83.7 nM | 24.1 nM | 107 nM | – | – | –
7 | GGAGAGAGAGCACAGGAUAUGAGAGGAGAGACAUGAGGAUCACCCAUGUAAGAGAGAGAGGAGAGUUAGAAGGGUGAGAGAGAGG [Altered State 2-20 - Jieux - Same State 2] (puzzle: Same State 2) | – | – | – | 54.7 nM | 43 nM | 102 nM
8 | GGAGCAGGGUGAGGAUAUGUAAAAUUCGAAAGGACAGAAGGCACUUAACCAACAUGAGGAUCACCCAUGUAGGCGACGGCACCA [Eternabot solution 8] (Eterna round: R96, puzzle: Same State NG 1) | – | 19.9 nM | – | – | – | –
9 | GGAGCCAGCACCGAGGAUAUUCAUAUUAAAACAUGAGGAUCACCCAUGUAGGCCAGAAGGCCUUGGGAGAAGGCGGAUUGGCUCG [Xeonanis - 10] (puzzle: Same State 2) | – | – | – | 35.3 nM | 327 nM | 496 nM
10 | GGAGCCGACACUGAGGAUAUUCAUAUUAAAACAUGAGGAUCACCCAUGUAGGCCAGAAGGCCUUGGGAGAAGGCAGGCCGGCUCG [Inxebi] (Eterna round: R96, puzzle: Same State 2) | 21.9 nM | 166 nM | 287 nM | – | – | –
11 | GGAGCCGACACUGAGGAUAUUCAUAUUAAAACAUGAGGAUCACCCAUGUAGGCCAGAAGGCCUUGGGAGAAGGCAGGUCGGCCCG [Bibimoar - 2] (puzzle: Same State 2) | – | – | – | 15.9 nM | 331 nM | 294 nM
12 | GGAGCCGGCACCGAGGAUAUUCAUAUUAAAACAUGAGGAUCACCCAUGUAGCUCGAAAGAGCUUGGGAGAAGGCGGAUCGGCUCG [Xeonanis - 29] (Eterna round: R96, puzzle: Same State 2) | 37.3 nM | 322 nM | 633 nM | – | – | –
13 | GGAGCCGGCACCGAGGAUAUUCAUAUUAAAACAUGAGGAUCACCCAUGUAGCUCGAAAGAGCUUGGGAGAAGGCGGAUCGGCUCG [Xeonanis - 29] (puzzle: Same State 2) | – | – | – | 30.5 nM | 1010 nM | 827 nM
14 | GGAGCCGGCCUAGGAUAUUUCAUAAGAAAACAUGAGGAUCACCCAUGUAGGCCAGAAGGCCUUGGGAAGAAGGAGGUCGGCUCC [Loop Effect - G26] (Eterna round: R96, puzzle: Same State NG 2) | 11.2 nM | 19.7 nM | 35.1 nM | – | – | –
15 | GGAGCCGGCCUAGGAUAUUUCAUAAUAUUACAUGAGGAUCACCCAUGUAGGCCAGAAGGCCUUGGGAAGAAGGAGGUCGGCUCC [Loop Effect - U26,U28,U29] (Eterna round: R96, puzzle: Same State NG 2) | – | 30.7 nM | – | – | – | –
16 | GGAGCCGGCCUAGGAUAUUUCAUUUAAAAACAUGAGGAUCACCCAUGUAGGCCAGAAGGCCUUGGGAAGAAGGAGGUCGGCUCC [Loop Effect - U24,U25] (Eterna round: R96, puzzle: Same State NG 2) | 11.2 nM | 22.7 nM | 44.2 nM | – | – | –

Row | Sequence | apparent KD of MS2 coat protein (input ligand: FMN 200 uM) | apparent KD of MS2 coat protein [1] | apparent KD of MS2 coat protein (input ligand: none) | apparent KD of MS2 coat protein [2] | apparent KD of MS2 coat protein [3] | apparent KD of MS2 coat protein [4]
17 | GGAGCCGGUACUGAGGAUAUUCAUAUUAAAACAUGAGGAUCACCCAUGUAGGCCAGAAGGCCUUGGGAGAAGGCAGACCAGCUCG [Atgexeedri] (Eterna round: R96, puzzle: Same State 2) | 18 nM | 190 nM | 271 nM | – | – | –
18 | GGAGCCUGCACUGAGGAUAUUCAUAGUGUAACAUGAGGAUCACCCAUGUAGGCCCUGAGGCCUUGGGAGAAGGCAGUGCGGCUCG [JL-ss2-3.05 ViennaUCT mod] (puzzle: Same State 2) | – | – | – | 27.9 nM | 355 nM | 447 nM
19 | GGAGGACAUGAGGAUCACCCAUGUAGAUGGGCGCUAGGAUAUGCGAGAGGGUAGAGAGAAGCAGAAGGAGUGGAAA [JR_SS1_Sub040] (puzzle: Same State 1) | – | – | – | 149 nM | 197 nM | 382 nM
20 | GGAGGACAUGAGGAUCACCCAUGUGGAUGGGCGCUAGGAUAUGCGAGAGGAUGGAGAGAAGCAGAAGGAGUGGGUU [JR_SS1_Sub042] (puzzle: Same State 1) | – | – | – | – | 79.6 nM | –
21 | GGAUAACAUGAGGAUCACCCAUGUCAACAAAGUCGAGGAUAUGGGCAAUUAUAAUUAGAACCAGAAGGCGAAUAGG [Mat - Same State 1 - Mod of UCT - D44] (puzzle: Same State 1) | – | – | – | 55.9 nM | 126 nM | 191 nM
22 | GGAUGAUAGACAGGAUAUUGAUUGUAAUUAGGUCAAGAAGGGUCUUUGAUUUAAACGACCAGUUACAUGAGGAUCACCCAUGUU [JR_SSNG1_Sub028] (Eterna round: R96, puzzle: Same State NG 1) | 82.5 nM | 65.9 nM | 201 nM | – | – | –
23 | GGAUGAUUAACAGGAUAUCAUUUGUAAAUUGGUUGAGAAGGGUUAAUGAUUUACACGACCUGUUACAUGAGGAUCACCCAUGUU [SameState NG1 #2] (Eterna round: R96, puzzle: Same State NG 1) | 41 nM | 33.8 nM | 47.2 nM | – | – | –
24 | GGAUGAUUGACAGGAUAUCAUUUGUAAAUUCGAUGAGAAGGGUCGAUUACUUACACGACGUGUUACAUGAGGAUCACCCAUGUU [SameState NG1 #5] (Eterna round: R96, puzzle: Same State NG 1) | 53.7 nM | 116 nM | 148 nM | – | – | –
25 | GGCCAGAGUCAAGGAUAUGCUACCGUUUCGGUAGCAGAAGGUGAUCACAUGAGGAUCACCCAUGUUUACUGGGAGACCAUGGCC [JL SSNG1 3.69] (Eterna round: R96, puzzle: Same State NG 1) | 219 nM | 136 nM | 112 nM | – | – | –
26 | GGCCUGAGUCAAGGAUAUGCUACCGUUUCGGUAGCAGAAGGUGAUCACAUGAGGAUCACCCAUGUUUACGGGAAGACCCGCGCC (Eterna round: R96, puzzle: Same State NG 1) | 1470 nM | 141 nM | 489 nM | – | – | –
27 | GGCGAAGGAGAAGGAUAUAUCUUGGACAUAUAGAUGCACAUGAGGAUCACCCAUGUCAUCAUGGGAUAGAAGGUCUGCUUCACC [Eternabot solution 33] (Eterna round: R96, puzzle: Same State NG 2) | 13.2 nM | 10.3 nM | 14.2 nM | – | – | –
28 | GGCGGAUCCACAUGAGGAUCACCCAUGUAGCGGAGACGCAAUGAGGAUAUCGAUGGGUUUCCCGUCGAGAAGGCAUAAACCGCC [JL SSNG3 3.93 mod 2] (Eterna round: R96, puzzle: Same State NG 3) | 17.8 nM | 14.9 nM | 16 nM | – | – | –
29 | GGCGGCCUGGGAGGAUAUCGGGCCCUUUGGGCCCGAGAAGGUCCGGAGCCUCUGACAUGAGGAUCACCCAUGUAGGCUGCUGCC [first try] (Eterna round: R96, puzzle: Same State NG 1) | 45.4 nM | 186 nM | 154 nM | – | – | –
30 | GGCGUAUAAACAUGAGGAUCACCCAUGUAGCGGAGACGCAAUGAGGAUAUCGAUGGGUUUCCCGUCGAGAAGGCGUGGGUCGCC [JL SSNG3 3.94] (Eterna round: R96, puzzle: Same State NG 3) | 20.6 nM | 20.6 nM | 29 nM | – | – | –
31 | GGCUAUCGCGUACGAUAGCUGAAGCAUGUACAUGAGGAUCACCCAUGUCAUGUACAAGCUUUUUGCUCGUCUUAUUG [JL-shm-2.32 JL mod] (puzzle: Sensor for hsa-mir-208a) | – | – | – | 243 nM | 13.9 nM | 348 nM
32 | GGCUAUCGCGUACGAUAGCUUAAGCGUGUACAUGAGGAUCACCCAUGUCAUGUACAAGCUUUUUGCUCGUCUUAUUG [JL-shm-2.34 JL mod] (puzzle: Sensor for hsa-mir-208a) | – | – | – | 195 nM | 19.4 nM | 493 nM
